# Patent US20060246519
# How the values were obtained:
# [1] = SDS-PAGE/Western blot of non-boiled culture supernatant, 20 uM biotin in medium; self-association of subunits
# [2] = SDS-PAGE/Western blot of non-boiled culture supernatant; self-association of subunits
protein,measurement,setting,value
"streptavidin mutein M4 (T76R, V125R, V55T, L109T), secreted by B. subtilis (protein) DPSKDSKAQVSAAEAGITGTWYNQLGSTFIVTAGADGALTGTYESAVGNAESRYTLTGRYDSAPATDGSGTALGWRVAWKNNYRNAHSATTWSGQYVGGAEARINTQWTLTSGTTEANAWKSTLRGHDTFTKVKPSAASIDAAKKAGVNNGNPLDAVQQ","% monomer, with additional biotin",[1],100%
same,"% monomer, no additional biotin",[2],100%
